In the nanobody polyreactivity screen of Harvey et al. (2022):

Assay: yeast display, Sf9 membrane polyspecificity reagent, FACS + sequencing; frameworks hold sequencing errors
Summary of the method: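 Galactose induction of a Saccharomyces cerevisiae BJ5465 synthetic nanobody display library ran 36–48 hours. The cells were then stained for 1 hour at 4 °C with 10% biotinylated, detergent-solubilized Sf9 membrane reagent, pulled down on streptavidin microbeads and FACS-sorted into low and high (top ~1%) gates on expression and reagent-binding fluorescence. Labels for polyreactivity follow the gate of origin.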

| Sequence | polyreactivity (PSR sort gate) |
| --- | --- |
| QVQLVESGGGLVQAGGSLRLSCAASGRTFGYNAMGWYRQAPGKERELVAAITYSGGRTSYADSVKGRFTISRDNAKNTVYLQMNSLKPEDTAFYYCAAQPRYYSGYNYWGQGTQVTVSS | high polyreactivity |
| QVQLVESGGGLVQAGGSLRLSCAASGRTFGYNGMGWYRQAPGKEREFVAAITWSGGRTYYADSVKGRFTISRDKAKNTVYLQMNSLKPEDTAVYYCAAGKYRYTYYALEYDYWGQGTQVTVSS | low polyreactivity |
| QVQLVESGGGLVQAGGSLRLSCAASGRTFGYNTMGWYRQAPGKEREFVATIRTNGVSTYYADSVKGRFTISRDNAKNTVYLQMNSLKPEDTAVYYCNAPRTRKQKTIYVNAPGNYWGQGTQVTVSS | low polyreactivity |
| QVQLVESGGGLVQAGGSLRLSCAASGRTFGYNVMGWYRQAPGKEMELVAGITSSGSTNYADSVKGRFTISRDNAKNTVYLQMNSLKPEDTAVYYCNADRLITWQLLYISSYRYDYWGQGTQVTVSS | high polyreactivity |
| QVQLVESGGGLVQAGGSLRLSCAASGRTFGYYAMGWYRPAPGKEREFVAAISFRTTSTYYADSVKGRFTISRDNAKNTVYLQLNSLKPEDTAVYYCNVVVKGAWDYYPYDYWGQGPQVTVSS | high polyreactivity |
| QVQLVESGGGLVQAGGSLRLSCAASGRTFGYYAMGWYRPAPGKERELVAAISSGGRTYYADSVKGRFTISRDNAKNTVYLQMNSLKPEDTAVYYCNAASLVAYLARLGRDYWGQGTQVTVSS | low polyreactivity |
| QVQLVESGGGLVQAGGSLRLSCAASGRTFGYYAMGWYRPAPGKERELVASITGGGSTNYADSVKGRFTISRDNAKNTVYLQMNSLKPEDTAVYYCAAETITDDYYEYDYWGQGTQVTVSS | low polyreactivity |
| QVQLVESGGGLVQAGGSLRLSCAASGRTFGYYAMGWYRPEHGTERELVAAITRTGGSTHYADSVKGRFTISRDNAKNTVYLQMNSLKPEDTAVYYCARDYRYTIPYDYWGQGTQVTVSS | low polyreactivity |
| QVQLVESGGGLVQAGGSLRLSCAASGRTFGYYAMGWYRQAPGIERELVATITWGDGTTYYADSVKGRFTFSRDNAKNTVYLQMNILKPEDTAVYYCAVDRSSWWWDDYRYDYWGQGTQVTVSS | low polyreactivity |
| QVQLVESGGGLVQAGGSLRLSCAASGRTFGYYAMGWYRQAPGKERELVAAINSRGGSTYYADSVKGRFTISRDNAKNTVYLQMNSLKPEDTAVYYCAVVRWRHYIFATYDYWGQGTQVTVSS | high polyreactivity |
| QVQLVESGGGLVQAGGSLRLSCAASGRTFGYYAMGWYRQAPGKERELVAAISRSGSRTYYADSVKGRFTISRDNAKNTVYLQMNSLKPEDTAVYYCNKVKEFYVPTEYDYWGQGTQVTVSS | high polyreactivity |
| QVQLVESGGGLVQAGGSLRLSCAASGRTFGYYAMGWYRQAPGKERELVAAISTRSGSTYYADSVKGRFTISRDNAKNTVYLQMNSLKPEDTAVYYCDADSYPDYDYWGQGTQVTVSS | low polyreactivity |
| QVQLVESGGGLVQAGGSLRLSCAASGRTFGYYAMGWYRQAPGKERELVAAISYSSTITYYAGSVKGRFTISRDNAKNTVYLQMNSLKPEDTAVYYCAAYSTRGVEYDYWGQGTQVTVSS | high polyreactivity |
| QVQLVESGGGLVQAGGSLRLSCAASGRTFGYYAMGWYRQAPGKERELVASISWIGDDTYYADSVKGRFTISRDYAKNTVYLQMNSLKPEDTAVYYCNAVYAGRYFGFDYWGQGTQVTVSS | high polyreactivity |
| QVQLVESGGGLVQAGGSLRLSCAASGRTFGYYGMGWYRQAPGKEREFFAAITRSGGSTYYADSVKGRFTISRDNAKNTVYLQMNSLKPEDTAVYYCAAAHLFTRSRPYDYWGQGTQVTVSS | high polyreactivity |
| QVQLVESGGGLVQAGGSLRLSCAASGRTFGYYTMGWYRQAPGKEREFVAAISGSGTITFYADSVKGRFTISRDNAKNTVYLQMNSLKPEDTAVYYCAADYRYGGSRGYRYDYWGQGTQVTVSS | low polyreactivity |
| QVQLVESGGGLVQAGGSLRLSCAASGRTFGYYTMGWYRQAPGKERELVATITSSGGSTYYADSVKGRFTISRDNAKNTVYLQMNSLKPEDTAVYYCAARRKQGAYDYWGQGTQVTVSS | high polyreactivity |
| QVQLVESGGGLVQAGGSLRLSCAASGRTFHANAMGWYRQAPGKERELVAAISYRTGSTYYADSVKGRFTISRDNAKNTVYLQMNILKPDDTAVYYCDVDTRYGYGYWGQGTQVTVSS | high polyreactivity |
| QVQLVESGGGLVQAGGSLRLSCAASGRTFHGYAMGWYRQAPGKERELVARINWSDGRTYYADSVKGRFTISRDNAKNTVYLQMNSLKPEEPAVYYCAATRYYYYWYVYEDRGDFWGQGTQVTVSS | low polyreactivity |
| QVQLVESGGGLVQAGGSLRLSCAASGRTFHTNAMGWYRQAPGKERELVAAITRSGSGTYYADSVKGRFTISRDNAKNTVYLQMNSLKPEDTAVYYCNAVRRGEYDYWGQGTQVTVSS | high polyreactivity |
| QVQLVESGGGLVQAGGSLRLSCAASGRTFHYNAMGWYRQAPGKERELVAAITRSGGSTYYADSLKGRFTISRVNAKNTVYLQMNSLKPEDTAVYYCAAGWRSVSVRYYGPSDYWGQGTQVTVSS | low polyreactivity |
| QVQLVESGGGLVQAGGSLRLSCAASGRTFHYYAMGWYRQAPGKERELVAGITGGGSTYYADSVKGRFTISRDNAKNTVYLQMNSLKPEDTAVYYCNARPYWFGSYGYWGQGTQVTVSS | low polyreactivity |

| Sequence | polyreactivity (PSR sort gate) |
| --- | --- |
| QVQLVESGGGLVQAGGSLRLSCAASGRTFHYYAMGWYRQAPGKERELVASISSGGSTHYADSVKGRFTISRDNANNTGYLQMNSLKPEDTAVYYCNRVDGYGPRNKVPYVTYGVYYWGQGTQVTVSS | low polyreactivity |
| QVQLVESGGGLVQAGGSLRLSCAASGRTFIEYAMAWYRQAPGKERELVAAISRNDGGSTYYADSVKGRFTISRDNAKNTVYLQMNSLKPEDTAVYYCAARRYISAHVRYGSWGQGTQVTLSS | high polyreactivity |
| QVQLVESGGGLVQAGGSLRLSCAASGRTFIGYAMGWYRQAPGKERELVAAISRGGSTKYADSVKGRFTISRDNAKNTVYLQMNSLKPEDTAVYYCAVGWSYYAGLRHRYYSGFDYWGQGTQVTLSS | low polyreactivity |
| QVQLVESGGGLVQAGGSLRLSCAASGRTFILNAMGLYRQAPGKERELVAAISWSGGSTYYADSVKGRFTISRDNAKNTVYLQMNSLKPEDTAVYYCAAETYAYLFHTYDYWGQGTQVTVSS | low polyreactivity |
| QVQLVESGGGLVQAGGSLRLSCAASGRTFINYAMGWYRQAPGKERELVAAITTGGRTNYADSVKGRFTISRDNAKHTVYLQMNSLKPEDTAVYYCAADRYYWGRYTLNYWGQGTQVTVSS | low polyreactivity |
| QVQLVESGGGLVQAGGSLRLSCAASGRTFIRYAMGGYRQATGKERELVAAISWSGGSTYYADSVKGRFTISRDNAKNTVYLQMNSLKPEDTAVYYCARRVGYKFSYDYWGQGTQVTVSS | high polyreactivity |
| QVQLVESGGGLVQAGGSLRLSCAASGRTFIRYTMGWYRQASGKERELVAAITSTGRTYYADSVKGRFTFSRDNAKNTVYLEMNSLKPEDTAVYYCAAKQSWEVYDYWGQGTQVTVSS | low polyreactivity |
| QVQLVESGGGLVQAGGSLRLSCAASGRTFISNVMGWYRQAPGKERELVAAIRSSGRTYYADSVKGRFTISRDNAKNTVYFQMNSLKPEDTAVYYCAAPGGLLGSGYWGQGTQVTVSS | low polyreactivity |
| QVQLVESGGGLVQAGGSLRLSCAASGRTFIVNTMGRYRQAPGKERELVAAITARGGRTYYADSVKGRFTISRDNAKNTVYLQMNSLKPEDTAVYYCNARTPPREAERYYWGLGTQVTVSS | low polyreactivity |
| QVQLVESGGGLVQAGGSLRLSCAASGRTFIYNTMGGYRQAPGKERELVAAITGNGGSTYYADSVKGRFTISRDYEKNTVYFQMNSLKPEDTAVYYCNAVGFDQPRYYYWGQGTQVTVSS | high polyreactivity |
| QVQLVESGGGLVQAGGSLRLSCAASGRTFIYNVMGWYRQAPGKERELVASIRSSGGSTYYADSVKGRFTISRDNAKNTVYLQMNSLKPEDTAVYYCAADRSPGIRGWPGDYWGQGTQVTVSS | low polyreactivity |
| QVQLVESGGGLVQAGGSLRLSCAASGRTFIYYAMGWYRQAPGKERELVAGITYSVGSTYYADSVKGRFTISRDNEKNTVYLQMNSLKPEDTAVYYCAYYYWGQGTQVTVSS | low polyreactivity |
| QVQLVESGGGLVQAGGSLRLSCAASGRTFKDYAMGWYRQAPGKERELVAGINGSGGSTYYADSVKGRFTISRDYAKNTVYLQMNSLKPEDTAVYYCNADFGYWWDGRRYDYWGQGTQVTVSS | low polyreactivity |
| QVQLVESGGGLVQAGGSLRLSCAASGRTFKGYAMGWYRQAPGKERELVAAITGSVGSTYYADSVKGRFTISRDNAKNTVYLQMNSLKPEDTAVYYCAKRWKATRARYDYWGQGTQVTVSS | high polyreactivity |
| QVQLVESGGGLVQAGGSLRLSCAASGRTFKHYVMGWYRQAPGKERELVATISGGGGTYFADSVKGRFTISRYNAKYTVYLQMNSLKPEVTAVYYCAARYPRGSRTWSFDSNKQRDYWGQGTQVTVSS | low polyreactivity |
| QVQLVESGGGLVQAGGSLRLSCAASGRTFKKYAMGWYRQAPGKERELVAAITGSGGSTYYADSVKGRFTISRDNAKNTVYLQMNSLKPEDTAVYYCAAEVVAQMNYWGQGTQVTVSS | low polyreactivity |
| QVQLVESGGGLVQAGGSLRLSCAASGRTFKKYAMGWYRQAPGKERELVAAITGSGGSTYYADSVKGRFTISRDNAKNTVYLQMNSLKPEDTAVYYCAAYAYGVWHSQDGGNYWGQGTLVTVSS | low polyreactivity |
| QVQLVESGGGLVQAGGSLRLSCAASGRTFKLYAMGWYRQAPGKERELVAALSIRGTSTYYADSVKGRFTISRDNAKNTVYLQMNSLKPEDTAVYYCAAEDRYGYYLVRWQGYYYWGQGTQVTVSS | low polyreactivity |
| QVQLVESGGGLVQAGGSLRLSCAASGRTFKNYAMGSYRQAPGKERELVAAISWRSGSTNYADSVKGRCTISRDNAKNTVYLQMNSLKPEDTAVYYCARKRRISGWSQFTSYADFDYWGQGSQVTVSS | low polyreactivity |
| QVQLVESGGGLVQAGGSLRLSCAASGRTFKNYAMGWYRQAPGKERELVAAISRRGSSTYYADSVKGRFTISRDNAKNTVYLQMNSLKPEDTAVYYCNAVKFTYGWLGYWGQGTQVTVSS | high polyreactivity |
| QVQLVESGGGLVQAGGSLRLSCAASGRTFKPYAMGWYRQAPGIERELVARISGSGGSTYYADSVKGRFTISRDNGKNTVYLQLNSLKPEDTAVYYCATTPYYWFDYWGQGTQVTVSS | low polyreactivity |
